Source: publication doi:10.1101/2025.08.25.672209, “Molecular Architecture and Function Mechanism of Tri-heteromeric GluN1-N2-N3A NMDA Receptors” (bioRxiv, 2025)

Tests used:
[1] = molecular target: T1, GluN1-N3A di-heteromeric NMDA receptor (rat, CTD-truncated; fraction of the same preparation) (rat, UniProt P35439-1;Q9R1M7-1); test: SEC; fluorescence-detection size-exclusion chromatography (FSEC); receptors preincubated with N1-Fab 4F11, N2A-Fab 28C or both; shift of the elution peak; conditions: both partners purified
T1 construct: signal peptide in the construct; rat GluN1-1a, residues 1-847, as m1; rat GluN3A, residues 1-965, as m3; also called GluN1-N3A di-NMDARs; source: HEK293S GnTI- cells, baculovirus transduction; copies: 2 + 2

[2] = molecular target: T2, rat GluN1-1a (residues 1-847), CTD-truncated (rat, UniProt P35439-1); test: cryo-EM structure; GluN1-N2A-N3A (subunits co-expressed and co-purified) incubated with Fabs 4F11 and 2-8C, SEC in digitonin with 1 mM glycine and 1 mM glutamate, pH 8.0; overall resolution 7.7 Å; conditions: both partners purified
T2 construct: signal peptide in the construct; rat GluN1-1a, residues 1-847 (CTD-truncated), GenBank NP_058706.1; no tag is stated for GluN1 itself; a T2A remnant may remain on one of the two chains (surmise); source: HEK293S GnTI- cells, baculovirus transduction, co-expressed with GluN2A and GluN3A; purified as receptor complex (Strep-Tactin, Ni resin, SEC)

B1: N1-Fab 4F11 (Fab of the anti-GluN1 monoclonal antibody clone 4F11) (Fab, V domains shown)
VH: DVQLQESGPGLVKPSQSLSLTCTVTGYSITSDYAWNWIRQFPGNKLEWMGYISYSGSTGYNPSLKSRISITRDTSKNQFFLQLNSVTTEDTATYYCARLYYGFYGMDYWGQGTSVTVSS
VL: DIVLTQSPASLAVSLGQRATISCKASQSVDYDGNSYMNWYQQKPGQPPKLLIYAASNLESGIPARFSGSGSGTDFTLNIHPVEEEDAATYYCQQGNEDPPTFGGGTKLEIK
notes: Raised against CTD-truncated human GluN1-N2A receptors; also called Fab-N1_(4F11); source: hybridoma monoclonal antibody, papain digestion, Fc removed with protein-A agarose, purified by SEC
binding result [1]: binds
binding result [2]: binds
